T1: mouse FcγRIII (mouse, UniProt P08508 31-215)
T1 construct: Extracellular domain with C-terminal His tag; also called mFcγRIII; mFcgRIII
T1 chain: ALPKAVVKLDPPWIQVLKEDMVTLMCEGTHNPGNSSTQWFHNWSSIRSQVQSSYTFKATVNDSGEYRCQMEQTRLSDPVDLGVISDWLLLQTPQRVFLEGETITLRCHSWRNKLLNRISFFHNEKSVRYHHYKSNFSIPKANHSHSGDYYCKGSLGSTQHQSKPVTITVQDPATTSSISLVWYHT

T2: mouse FcγRII (mouse, UniProt P08101 30-210)
T2 construct: Extracellular domain with C-terminal His tag; also called mFcγRII; mFcgRII
T2 sequence: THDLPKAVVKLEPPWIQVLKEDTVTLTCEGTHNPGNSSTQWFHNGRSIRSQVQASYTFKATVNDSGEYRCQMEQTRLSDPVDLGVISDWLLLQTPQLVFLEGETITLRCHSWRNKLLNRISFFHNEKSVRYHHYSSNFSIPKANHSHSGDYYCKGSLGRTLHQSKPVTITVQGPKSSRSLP


Key:
mouse FcγRIII [1] = molecular target: T1, mouse FcγRIII; test: SPR (Biacore T200); KD of H237-mIgG1/MRAL-k0 / KD of variant
mouse FcγRII [2] = molecular target: T2, mouse FcγRII; test: as above
mouse FcγRIII [3] = molecular target: T1, mouse FcγRIII; test: SPR (Biacore T200); KD of H237-MB630/MRAL-k0 / KD of variant
mouse FcγRII [4] = molecular target: T2, mouse FcγRII; test: as above

Binder | relative mFcγRIII-binding activity (mIgG1 = 1) (mouse FcγRIII [1]) [fold] | relative mFcγRII-binding activity (mIgG1 = 1) (mouse FcγRII [2]) [fold] | Relative mFcγRIII-binding activity (MB630 = 1) (mouse FcγRIII [3]) [fold] | Relative mFcγRII-binding activity (MB630 = 1) (mouse FcγRII [4]) [fold]
MB824 (antibody, mouse IgG1, kappa, CH name; VH H237 + CH, L chain MRAL-k0; copies: 2 + 2) heavy: QVQLQESGPGLVKPSETLSLTCAVSGHSISHDHAWSWVRQPPGEGLEWIGFISYSGITNYNPSLQGRVTISRDNSKNTLYLQMNSLRAEDTAVYYCARSLARTTAMDYWGEGTLVTVSSAKTTPPSVYPLAPGSAAQTNSMVTLGCLVKGYFPEPVTVTWNSGSLSSGVHTFPAVLQSDLYTLSSSVTVPSSTWPSETVTCNVAHPASSTKVDKKIVPRDCGCKPCICEPNEVELVFIFPPKPKDVLTITLTPKVTCVVVDISKDDPEVQFSWFVDDVEVHTAQTQPREEQFNSTFRSVSELPIMHQDWLNGKEFKCRVNSDAFPAYIEKTISKTKGRPKAPQVYTIPPPKEQMAKDKVSLTCMITDFFPEDITVEWQWNGQPAENYKNTQPIMDTDGSYFVYSKLNVQKSNWEAGNTFTCSVLHEGLHNHHTEKSLSHSPGK light: not shown | 0.56 | 28 | 2.45 | 2.13
MB825 (antibody, mouse IgG1, kappa, CH name; VH H237 + CH, L chain MRAL-k0; copies: 2 + 2) heavy: QVQLQESGPGLVKPSETLSLTCAVSGHSISHDHAWSWVRQPPGEGLEWIGFISYSGITNYNPSLQGRVTISRDNSKNTLYLQMNSLRAEDTAVYYCARSLARTTAMDYWGEGTLVTVSSAKTTPPSVYPLAPGSAAQTNSMVTLGCLVKGYFPEPVTVTWNSGSLSSGVHTFPAVLQSDLYTLSSSVTVPSSTWPSETVTCNVAHPASSTKVDKKIVPRDCGCKPCICEPNEVELVFIFPPKPKDVLTITLTPKVTCVVVDISKDDPEVQFSWFVDDVEVHTAQTQPREEQFNSTFRSVSELPIMHQDWLNGKEFKCRVNSDAFPAPIYKTISKTKGRPKAPQVYTIPPPKEQMAKDKVSLTCMITDFFPEDITVEWQWNGQPAENYKNTQPIMDTDGSYFVYSKLNVQKSNWEAGNTFTCSVLHEGLHNHHTEKSLSHSPGK light: not shown | 0.5 | 28.4 | 2.17 | 2.16
MB826 (antibody, mouse IgG1, kappa, CH name; VH H237 + CH, L chain MRAL-k0; copies: 2 + 2) heavy: QVQLQESGPGLVKPSETLSLTCAVSGHSISHDHAWSWVRQPPGEGLEWIGFISYSGITNYNPSLQGRVTISRDNSKNTLYLQMNSLRAEDTAVYYCARSLARTTAMDYWGEGTLVTVSSAKTTPPSVYPLAPGSAAQTNSMVTLGCLVKGYFPEPVTVTWNSGSLSSGVHTFPAVLQSDLYTLSSSVTVPSSTWPSETVTCNVAHPASSTKVDKKIVPRDCGCKPCICEPNEVELVFIFPPKPKDVLTITLTPKVTCVVVDISKDDPEVQFSWFVDDVEVHTAQTQPREEQFNSTFRSVSELPIMHQDWLNGKEFKCRVNSAGFPAFIEKTISKTKGRPKAPQVYTIPPPKEQMAKDKVSLTCMITDFFPEDITVEWQWNGQPAENYKNTQPIMDTDGSYFVYSKLNVQKSNWEAGNTFTCSVLHEGLHNHHTEKSLSHSPGK light: not shown | 0.34 | 18.5 | 1.48 | 1.41
MB827 (antibody, mouse IgG1, kappa, CH name; VH H237 + CH, L chain MRAL-k0; copies: 2 + 2) heavy: QVQLQESGPGLVKPSETLSLTCAVSGHSISHDHAWSWVRQPPGEGLEWIGFISYSGITNYNPSLQGRVTISRDNSKNTLYLQMNSLRAEDTAVYYCARSLARTTAMDYWGEGTLVTVSSAKTTPPSVYPLAPGSAAQTNSMVTLGCLVKGYFPEPVTVTWNSGSLSSGVHTFPAVLQSDLYTLSSSVTVPSSTWPSETVTCNVAHPASSTKVDKKIVPRDCGCKPCICEPNEVELVFIFPPKPKDVLTITLTPKVTCVVVDISKDDPEVQFSWFVDDVEVHTAQTQPREEQFNSTFRSVSELPIMHQDWLNGKEFKCRVNSAGFPAYIEKTISKTKGRPKAPQVYTIPPPKEQMAKDKVSLTCMITDFFPEDITVEWQWNGQPAENYKNTQPIMDTDGSYFVYSKLNVQKSNWEAGNTFTCSVLHEGLHNHHTEKSLSHSPGK light: not shown | 0.38 | 21.5 | 1.64 | 1.63

Source: US20150203577A1 (Chugai, published 2015)
